Laboratory results published in the supplement of paper PMC10567573.

B1: HSP90AB1 (parent)
chain: EADKNDKAVKDLVVLLFETALLSS

Variants of: B1
Experiment: protein stability index of a GFP-peptide fusion (GPS, HEK-293T) (PSI 1-6); higher = more stable
Conditions: c terminus: a fixed tail appended
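Note: lentivirally expressed fusions sorted by FACS into six bins by GFP to DsRed ratio, PSI derived from sequencing read proportions per bin multiplied by bin number.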

In order of rising protein stability index:
1. EADKNDKAVKDLVVVLFETALLSS [L15V]  1.5
2. EADKNDKAVKPLVVLLFETALLSS [D11P]  1.51
3. EADKNDKAVKDLVMLLFETALLSS [V14M]  1.61
4. EADKNDKAVKMLVVLLFETALLSS [D11M]  1.65
5. EADKNDKAVKDFVVLLFETALLSS [L12F]  1.72
6. EADKNDKAVKDLVLLLFETALLSS [V14L]  1.72
7. EADKNDKAVKDLVALLFETALLSS [V14A]  1.77
8. EADKNDKAVRDLVVLLFETALLSS [K10R]  1.8
9. EADKNDKAVSDLVVLLFETALLSS [K10S]  1.82
10. EADKNDKAVWDLVVLLFETALLSS [K10W]  1.83
11. EADKNDKAVKDLVYLLFETALLSS [V14Y]  1.88
12. EADKNDKAVKDLVWLLFETALLSS [V14W]  1.92
13. EADKNDKAVKDLVVMLFETALLSS [L15M]  1.92
14. EADKNDKAVKDLIVLLFETALLSS [V13I]  1.93
15. EADKNDKAVKDLVVILFETALLSS [L15I]  1.95
16. EADKNDKAVKQLVVLLFETALLSS [D11Q]  1.97
17. EADKNDKAVKELVVLLFETALLSS [D11E]  1.98
18. EADKNDKAVKDLVFLLFETALLSS [V14F]  1.98
19. EADKNDKAVKSLVVLLFETALLSS [D11S]  1.99
20. EADKNDKAVKDLCVLLFETALLSS [V13C]  2.03
21. EADKNDKAVKDLVILLFETALLSS [V14I]  2.04
22. EADKNDKAVKDLVVYLFETALLSS [L15Y]  2.04
23. EADKNDKAVKDVVVLLFETALLSS [L12V]  2.1
24. EADKNDKAVKDLLVLLFETALLSS [V13L]  2.1
25. EADKNDKAVKDLVTLLFETALLSS [V14T]  2.12
26. EADKNDKAVKKLVVLLFETALLSS [D11K]  2.15
27. EADKNDKAVKDLVVCLFETALLSS [L15C]  2.15
28. EADKNDKAVKDYVVLLFETALLSS [L12Y]  2.16
29. EADKNDKAVKDLVSLLFETALLSS [V14S]  2.17
30. EADKNDKAVKDLVGLLFETALLSS [V14G]  2.19
31. EADKNDKAVKDMVVLLFETALLSS [L12M]  2.2
32. EADKNDKAVKDLVNLLFETALLSS [V14N]  2.21
33. EADKNDKAVTDLVVLLFETALLSS [K10T]  2.26
34. EADKNDKAVKDLVRLLFETALLSS [V14R]  2.29
35. EADKNDKAVKDLYVLLFETALLSS [V13Y]  2.33
36. EADKNDKAVKDLVQLLFETALLSS [V14Q]  2.33
37. EADKNDKAVKDCVVLLFETALLSS [L12C]  2.35
38. EADKNDKAVKDLAVLLFETALLSS [V13A]  2.41
39. EADKNDKAVKDLFVLLFETALLSS [V13F]  2.41
40. EADKNDKAVKDIVVLLFETALLSS [L12I]  2.46
41. EADKNDKAVVDLVVLLFETALLSS [K10V]  2.48
42. EADKNDKAVKDLVVKLFETALLSS [L15K]  2.48
43. EADKNDKAVKDAVVLLFETALLSS [L12A]  2.52
44. EADKNDKAVKDLVVALFETALLSS [L15A]  2.52
45. EADKNDKAVKALVVLLFETALLSS [D11A]  2.54
46. EADKNDKAVKDLHVLLFETALLSS [V13H]  2.58
47. EADKNDKAVKHLVVLLFETALLSS [D11H]  2.61
48. EADKNDKAVKDLVKLLFETALLSS [V14K]  2.64
49. EADKNDKAVKDLVVRLFETALLSS [L15R]  2.64
50. EADKNDKAVKNLVVLLFETALLSS [D11N]  2.67
51. EADKNDKAVKGLVVLLFETALLSS [D11G]  2.68
52. EADKNDKAVKDLVVHLFETALLSS [L15H]  2.69
53. EADKNDKAVYDLVVLLFETALLSS [K10Y]  2.7
54. EADKNDKAVKDLVVTLFETALLSS [L15T]  2.71
55. EADKNDKAVKDTVVLLFETALLSS [L12T]  2.73
56. EADKNDKAVKDLVVSLFETALLSS [L15S]  2.77
57. EADKNDKAVKYLVVLLFETALLSS [D11Y]  2.79
58. EADKNDKAVKDLVCLLFETALLSS [V14C]  2.81
59. EADKNDKAVKFLVVLLFETALLSS [D11F]  2.86
60. EADKNDKAVKDLRVLLFETALLSS [V13R]  2.98
61. EADKNDKAVKDLVDLLFETALLSS [V14D]  3.03
62. EADKNDKAVKVLVVLLFETALLSS [D11V]  3.05
63. EADKNDKAVKWLVVLLFETALLSS [D11W]  3.06
64. EADKNDKAVKDLVVQLFETALLSS [L15Q]  3.06
65. EADKNDKAVKDPVVLLFETALLSS [L12P]  3.2
66. EADKNDKAVKCLVVLLFETALLSS [D11C]  3.23
67. EADKNDKAVKDLVVGLFETALLSS [L15G]  3.23
68. EADKNDKAVKRLVVLLFETALLSS [D11R]  3.27
69. EADKNDKAVKDHVVLLFETALLSS [L12H]  3.27
70. EADKNDKAVKDLTVLLFETALLSS [V13T]  3.27
71. EADKNDKAVKDLKVLLFETALLSS [V13K]  3.37
72. EADKNDKAVKDLGVLLFETALLSS [V13G]  3.38
73. EADKNDKAVKDRVVLLFETALLSS [L12R]  3.44
74. EADKNDKAVKDSVVLLFETALLSS [L12S]  3.49
75. EADKNDKAVKDGVVLLFETALLSS [L12G]  3.5
76. EADKNDKAVKDLVVELFETALLSS [L15E]  3.5
77. EADKNDKAVKDLSVLLFETALLSS [V13S]  3.54
78. EADKNDKAVKILVVLLFETALLSS [D11I]  3.6
79. EADKNDKAVKDKVVLLFETALLSS [L12K]  3.6
80. EADKNDKAVKDLVVDLFETALLSS [L15D]  3.61
81. EADKNDKAVKDLVVNLFETALLSS [L15N]  3.62
82. EADKNDKAVKDLNVLLFETALLSS [V13N]  3.7
83. EADKNDKAVKDQVVLLFETALLSS [L12Q]  3.71
84. EADKNDKAVKTLVVLLFETALLSS [D11T]  3.74
85. EADKNDKAVKDLEVLLFETALLSS [V13E]  3.74
86. EADKNDKAVKDLPVLLFETALLSS [V13P]  3.78
87. EADKNDKAVKDLDVLLFETALLSS [V13D]  3.81
88. EADKNDKAVKDNVVLLFETALLSS [L12N]  3.89
89. EADKNDKAVKDLVPLLFETALLSS [V14P]  3.93
90. EADKNDKAVKDEVVLLFETALLSS [L12E]  3.99
91. EADKNDKAVKDLVVWLFETALLSS [L15W]  3.99
92. EADKNDKAVKDLVVPLFETALLSS [L15P]  4.06
93. EADKNDKAVKDLQVLLFETALLSS [V13Q]  4.08
94. EADKNDKAVKDDVVLLFETALLSS [L12D]  4.21
